In experiment [1] the target is His-RAD54 WT (full-length recombinant RAD54) (UniProt Q92698). As to the kind of experiment: BLI; Octet; His-RAD54 WT immobilized onto Ni-NTA sensor, different concentrations of biotin BLM_peptide.
For another experiment, the target named is T1, RAD54 (Homo sapiens, UniProt Q92698).
T1 construct: gene RAD54L; His-RAD54
T1 sequence (Q92698 1-747): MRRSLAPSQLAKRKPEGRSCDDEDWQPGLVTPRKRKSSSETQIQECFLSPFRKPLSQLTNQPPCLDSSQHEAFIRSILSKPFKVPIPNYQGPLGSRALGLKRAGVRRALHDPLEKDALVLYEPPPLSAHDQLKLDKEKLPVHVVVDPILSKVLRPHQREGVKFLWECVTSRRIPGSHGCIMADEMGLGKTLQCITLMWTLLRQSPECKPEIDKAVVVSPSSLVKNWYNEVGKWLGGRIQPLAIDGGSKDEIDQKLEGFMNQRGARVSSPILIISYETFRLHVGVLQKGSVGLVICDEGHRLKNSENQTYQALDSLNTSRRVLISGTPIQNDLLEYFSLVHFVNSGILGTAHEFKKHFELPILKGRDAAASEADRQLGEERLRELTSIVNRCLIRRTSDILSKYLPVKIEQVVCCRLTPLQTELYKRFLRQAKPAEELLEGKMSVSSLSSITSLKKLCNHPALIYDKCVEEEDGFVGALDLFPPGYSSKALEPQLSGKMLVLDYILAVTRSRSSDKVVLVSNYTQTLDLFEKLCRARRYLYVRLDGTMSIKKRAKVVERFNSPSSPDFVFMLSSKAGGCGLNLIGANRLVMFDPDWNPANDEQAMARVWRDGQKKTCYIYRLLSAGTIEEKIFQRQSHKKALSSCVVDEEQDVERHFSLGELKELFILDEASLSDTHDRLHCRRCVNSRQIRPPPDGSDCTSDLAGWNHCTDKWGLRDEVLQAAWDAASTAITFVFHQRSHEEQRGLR
As to the kind of experiment: biolayer interferometry (His-RAD54 immobilized); tryptophan fluorescence quenching. The experiment is classed as binding.

As for biotinylated BLM (aa 181–212) peptide, the Kd in experiment [1] worked out at 0.0108 µM.

Compound `CC(=O)Nc1nnc(S(N)(=O)=O)s1` [C3, acetazolamide] registered a Kd at RAD54 of 55.8 µM.

For the origin of these results see article PMC11014671, “Small molecules that disrupt RAD54-BLM interaction hamper tumor proliferation in colon cancer chemoresistance models” (The Journal of Clinical Investigation, 2024).
